Measured values published in article PMC11252911 (Proceedings of the National Academy of Sciences of the …, 2024).
pKd: −log10 of the molar value.

How the values were obtained:
[1] = biological target: Pwl2-3 (Magnaporthe oryzae); test: ITC
[2] = biological target: Pwl2-2 (Magnaporthe oryzae); test: ITC

## HMA domain of OsHIPP43 (residues 26 to 101) (from UniProt Q8LJL3 26-101) (domain or fragment)
[1]
  pKd: 7.46
[2]
  pKd: 6.85
